Consider 19 sequences from the DeepSol protein solubility set.

This data set in a line: soluble on expression in E. coli; label from the status in PepcDB or PDB records.
As to “MGSDKIHHHHHHMEERIGLIDIGSNTIRLVIFGYNKKTGLNEILNIKTPARLSQYLTKSNEMNDEGIHVLKETLSSFRKVADKFNVDALYPIATAAIRQSKNREAIIKEIKQDIHIEIQIVPEEDEAFYGYYAITHTTDIENGISVDIGGGSTEVTLFKDKQLKEAHSFPFGVVSLKRQFFGDKAHNDKTAIKNMEQFLREQFSQLDWLSNQHIALVGVGGSARNVARIHQSAHAYPIGGVHNYKMTSKDINNVYDLIRKSSRDELTNLDGLSRDRVDIILPAISVFKTLFKKIDATQFTFSRKGIREGFIMNHISKRYPDEFNKSNVRKDALRHLANEYHIEETSANRRVKLAQSLLNQIISERSLNISAMEKELFIEGSYIYYLGSFIDSDSSSPHTYYLIANSMINGFSHKDRVKLALLASFKNKSLLKFYCKETQWFSNKEIDTIQALGGIIKFANTLNISHTSFVEEVKLKAKKDDKYDLLVYYKGSPIAEEYQANRQKKHIEKILKGKVSIIFTKS”, the “soluble on expression in E. coli” value was “not soluble”.
Under “MSLSRPTKFRKVDFFPKSTCFIPLGKPKCEVEEIALKIEELEAIRLKDIKELNQEECAAKMEVSRQTFQNIIDSARKKIAIALTEGNAIAIGGGNFKSKFCKFKCLDCRNTYEINCENDKHMCPSCGSNNIVCNKKTGSCENLCKEGHHHHHH” stands “soluble”; under “MGSDKIHHHHHHMQNATLPLPLQSPLLAASGENRVRHGFFTRQGGVSEGLYQGLNVGLGSHDEPEKVQENRRRVTQWFGLSADRLATVHQVHSPDVVVVDDNYDGNRPQADAMVTATPGFVLGVLSADCGPILFADAQAGVVGAAHAGWKGALFGVLENTIEAMVKLGASRERIAASLGPSISQDNYEVGPEYVARFTDIDPAYADYFAATERQGHALFDLKQFTIDRLTKAGVKAENLGLCTYPDEHRFYSYRRTTHRAEPDYGRQISAIAILED”, “not soluble”.
The entry for “MGSDKIHHHHHHMLRVAVVGGGPSGSCAAEVLAKAGIQTWLFERKLDNAKPCGGAIPLCMVDEFDLPESIIDRKVRNMRMISPSNREVDITLDKVYSPDDKSEYIGMCRREVMDAFMRDRAASLGTNLINGLVTKIDTGSNRQGPYTITYSDYSTGKSTGEAKSLEVDLIIGADGANSRVATAMDAGDYNVAIAFQERIKLPNEEMAYYEDLAEMYVGTDVSPDFYGWVFPKYDHVAVGTGTMQKNQTLIKSLQKGVRERAKKRLVHGEVIKVEAHPIPEHPRPRRVVGRMALVGDAAGYVTKSSGEGIYFAAKSGRMCAEQIVESSRSGELIPSEADLKKYLKKWDRKYGSTYIVLSILQAIFYSNDTAREAFVAMCDDMDVQRLTFDSYLYKKVVAMNPWQQIKLTLLTVDALARGIFRNQTSYKPVPSAVRSDEEVNAMLEIKTITGGIKVDNNKDASKQNLASEQEERDPAVSNKS” is “not soluble”; for “LVSGVICAAIGAVALLGTQAVLKSTNSTEFCVSCHSMTHPQAEWEGSVHFSNRKGIRAECADCHVPQDSWHYVKAKVAAVKDVWHTFVTNKIPDQEAYEKHRLEMAQHVWQDMKETDSATCRSCHSFDAMVLAEQREAAQKMHKIAQETNQTCIDCHKGIAHFMPEMPADNSAALGELAKHGGKFNSADKVLYSLAMTSAKLAQGSEIRLLPFAELHNWQEEGDKIVAVVKGWQQVGAEGVIYSGLGQRIMVGLVDDAAKDKLTVHQVVNDKVTNSDWKEVSTSVSLPKAALTADIKSLNDFGSNLNQTHCSGCHAPISANHYTA” it is “not soluble”; for “GGGGGGMKRFYIANEDEIKAGKTTDVYFLRTKKILEVKNIRKKVLADVTTTSLPNNWRWGVLVGVEEVAKLLEGIPVNVYAMPEGTIFHPYEPVLQIEGDYADFGIYETALLGMLSQASGIATAALRIKIAAKFKPVYSFGIRHMHPAIAPMIDRAAFIGGCDGVSGVLGAEMMGEKAVGTMPHALIITVGDQVKAWKYFDEVIEEEVPRIALVDTFYDEKVEAVMAAEALGKKLFAVRLDTPSSRRGNFRKIIEEVRWELKVRGYDWVKIFVSGGLDEEKIKEIVDVVDAFGVGGAIASAKPVDFALDIVEVEGKPIAKRGKLSGRKQVYRCENGHYHVVPANKKLERCPVCNAKVEPLLKPIIENGEIVVEFPKAREIREYVLEQAKKFNLEI” it is “soluble”.
The entry for “MHLRLRTKNGLITITVSQQCTIRELSEEIERKTGIEVAKQKILYGFPQRELRADADKPVESVLQSGDSLTVDKLSAETEQERTVESSPASTENAYVRRKVPDDNSCLFHAICYVFRSGSVAQLRHIISETVRLNPDLYTEAFLGKSNHEYSRWILLPETWGGAIELSILSKYFQTEISVFDIQTLRLDRYGEAENYEERVFLLYDGIHYDPIARAFLGASREYDVTVFKIWDNEALVGAKSVAEEANKNRQYTDLASFTLMCRNCGAKLKGETSAVEHAKQTGHTNFTEA” is “not soluble”; for “QNEEEADRIGIQVLQRSGFDPQAMPMFMGKLLDESRYSTRPPEMLLTHPLPESRLADARNRANQMRPVVVQSSADFYLAKARTLGMYTNGDNKLGTDLLNAWDKGNIRQQHAAQYGRALLAMESNNFDQARKTLQPLLNADPQNAWYLDLATDIDLGQKKTSDAINRLKNARELRTNPVLQLNLANALLQGGQPGEAATILNRYTFTYKEDGNGWDLLAQAEGALGNRDQELAARAESMALVGQLEQA” it is “not soluble”; for “GPGSMSNNMLALPKVLLMGLRKSGKSSIQKVVFEGMQPHDSATLATTVQPEKSTVHSNDFVNFEVWDFPGQNDPFDSSNASRYDVNQLLENCGAIVYVLDCRELIDDARARLLDTISAAYRHNPELCVEVFIHKVDALSEDHQADLLASLQRRVEEEAKPLLENVQPLRLNFNLTSIYDHSVFQAFSLVVQKLIKSKTPYITELLQMLNSNSNIDLSYLFLSHSKIYVAVDERNRLKSRTYDLCSDAIEVVVKMSGIYMRQRDGVAGGVKDAFTDSVHSLAASATSRTIISSSLGSADGCASDVSELYRGANAVIQLSNEDCIYVRELPSSLTLVLMMKQTHLENRALIDRNVDIFYKAAFDIFSTSAS” it is “not soluble”.
With “MQALILEQQDGKTLASVQHLEESQLPAGDVTVDVHWSSLNYKDALAITGKGKIIRHFPMIPGIDFAGTVHASEDPRFHAGQEVLLTGWGVGENHWGGLAERARVKGDWLVALPAGLSSRNAMIIGTAGFTAMLCVMALEDAGIRPQDGEVVVTGASGGVGSTAVALLHKLGYQVAAVSGRESTHGYLKSLGANRILSRDEFAESRPLEKQLWAGAIDTVGDKVLAKVLAQMNYGGCVAACGLAGGFALPTTVMPFILRNVRLQGVDSVMTPPARRAEAWARLVKDLPESFYAQAATEITLADAPKFADAIINNQVQGRTLVKIK”, the “soluble on expression in E. coli” value was “not soluble”.
For “QHGSSTDPSFVALRNNSSLSCDGKSRLLEFGNDLGFSKEETDVLAKQKNWEQNYTNFKKQFEHKLLDPKSFSLTDVYNLFSGFQQSVADTVKLMNELQTQVNKANDIYPVESFQVPKVPQKLFGFVDQGFFPKLNPKGLNIADNVASLFEKYSLKQATLKDFDIVLEKKNDIVLEHKVRYNFALQ”, the “soluble on expression in E. coli” value is “not soluble”.
As for “MSLDTNNALARFFDSSGYNANVSNPSAYQGQSANYYTGGSLFVRTPIVDAQLVSVTVPSISAGCSGIDMFMGGFSHVSSDQLVKVGKAIIHNAPPFIVNLALQTWAPQLKQNLDNLQAIADKYLNQSVNSCEAAQAAIGGLAAFAAPATKKHVCATLGTQNNAFSDWVQAQHECGAGGKAAGQLANAKNDPALKDITKTNHNVVWSAIMNNAFLSADKHLAQFMMSLSGTYVYDANGNPRYYPSLLTDNNNLVNVLLEGGKADIYQCRNTDPKACITITKPNNLSISQANGIQSQISKQLESILRHIATDQKLTDKQKSFLELTQTPVLKFFMDDLSANQTPDINSYSRMIAVELLNQYLTNMLSIASQSLANTNNSVEDIALITRDIDNAKRFTTGLADKAIETLNQRNQLIESQRKTAQRSQKDIGITTKPTQAYGNEGHHHHHH”, the “soluble on expression in E. coli” value is “not soluble”.
The entry for “MIWNETIECMDRESLRKIQSIRLKKIVDYVYHNTPFYRKKMQEMGITPDDINTIDDIVKLPFTTKHDLRDNYPFGLCAVPMSQIVRIHASSGTTGKPTVVGYTRKDLSSWAECISRAFTAYGAGRSDIFQVSYGYGLFTGGLGAHAGAENIGASVIPMSSGNTEKQITLMHDFGSTVLCCTPSYALYLADAIKDSGYPREEFQLKVGALGAEPWTENMRHEIEEKLGIKAYDIYGLSEIAGPGVGYECECQHGTHLNEDHYFPEIIDPNTLQPVEPGQTGELVFTHLTKEGMPLLRYRTRDLTALHYDKCSCGRTLVRMDRILGRSDDMLIIRGVNVFPTQIESVILEMEEFEPHYLLIVGRENNTDTMELQVEVRPDFYSDEINRMLALKKKLASRLQSVLGLGVNVKLVEPRSIERSVGKAKRVIDNRKI” is “not soluble”.
Under “MGSDKIHHHHHHMEPAGVYAKNVQIDRELSQRLHGALTCGKEELFQVVADPAPDVIRAALRNPAMDENHLLVLLGRRDLGEDLVAAIGRHDAVAESHKLKAALVRNPATPAQLVMSLLPHLYLFELVDLCLLAGVTPDQRVAAERAVIQRLSTTPLGNKITLARRATASILDALLKESDVRVVESCLTNPRLKEGSVFQLVSSSRATGDVIAAVARHQCWSNRPNLKAAMLKNPNTPTSLFSTLLASAPTMEVRNLAASGRLGTERKRLAAQELKRRGC” stands “not soluble”; under “MYTAEQKARIKWACRRGMLELDVVIMPFFEECFDSLTESEQDDFVALLESDDPDLFAWVMGHGRCENLGLAAMVDKIVAHNLSKVRLEHHHHHH”, “soluble”.
The entry for “MGHHHHHHSHMWQAISRLLSEQLGEGEIELRNELPGGEVHAAWHLRYAGHDFFVKCDERELLPGFTAEADQLELLSRSKTVTVPKVWAVGADRDYSFLVMDYLPPRPLDAHSAFILGQQIARLHQWSDQPQFGLDFDNALSTTPQPNTWQRRWSTFFAEQRIGWQLELAAEKGIAFGNIDAIVEHIQQRLASHQPQPSLLHGDLWSGNCALGPDGPYIFDPACYWGDRECDLAMLPLHTEQPPQIYDGYQSVSPLPADFLERQPVYQLYTLLNRARLFGGQHLVIAQQSLDRLLAA” is “soluble”.
Turning to “MGENYKFFNHKDCEFFPCHKTNKPEEFNCLFCYCPLYALGENCGGNFKYTDKGIKDCSSCILPHKKDNYNYIMSKFQDLVKITSKKLEHHHHHH”, the “soluble on expression in E. coli” value was “not soluble”.
Under “SPPPKAGLPLQQELASGSALVTDQNTGKVLYSRNPDLVVPIASITKLMTAMVVLDSKLPLDEVLPIAISETSEMRGVFSRVRVGSQISRRDMLLLALMSSENRAAASLAQNYPGGKNAFVKAMNAKAHALGMKNTRYVEPTGLSLHNVSTARDLTRLLVASRQYPLLSQWSTTPEKTVAFRHPNYTLGFRNTNHLINNKTWNIQLTKTGFTNEAGHCLVMRTTINRSPVNLVVLDAFGKYTHFADATRLRRWLETGQVTAIPAAAKAYRLQRDRERGLGQPVAQAVR” stands “soluble”; under “MKLPVREFDAVVIGAGGAGMRAALQISQSGQTCALLSKVFPTRSHTVSAQGGITVALGNTHEDNWEWHMYDTVKGSDYIGDQDAIEYMCKTGPEAILELEHMGLPFSRLDDGRIYQRPFGGQSKNFGGEQAARTAAAADRTGHALLHTLYQQNLKNHTTIFSEWYALDLVKNQDGAVVGCTALCIETGEVVYFKARATVLATGGAGRIYQSTTNAHINTGDGVGMAIRAGVPVQDMEMWQFHPTGIAGAGVLVTEGCRGEGGYLLNKHGERFMERYAPNAKDLAGRDVVARSIMIEIREGRGCDGPWGPHAKLKLDHLGKEVLESRLPGILELSRTFAHVDPVKEPIPVIPTCHYMMGGIPTKVTGQALTVNEKGEDVVVPGLFAVGEIACVSVHGANRLGGNSLLDLVVFGRAAGLHLQESIAEQGALRDASESDVEASLDRLNRWNNNRNGEDPVAIRKALQECMQHNFSVFREGDAMAKGLEQLKVIRERLKNARLDDTSSEFNTQRVECLELDNLMETAYATAVSANFRTESRGAHSRFDFPDRDDENWLCHSLYLPESESMTRRSVNMEPKLRPAFPPKIRTY”, “soluble”.
